# Measurements reported in patent US20250188151A1, “C-JUN ANTAGONIST PEPTIDES” (The University of Bath, priority 2022, published 2025).
# T1: cJun bZIP (human, UniProt P05412 252-308, limits assumed)
# T1 construct: Purified from a His-SUMO fusion with the tag cleaved off; also called c-Jun bZIP domain; 60 amino acid c-Jun bZIP construct
# T1 chain: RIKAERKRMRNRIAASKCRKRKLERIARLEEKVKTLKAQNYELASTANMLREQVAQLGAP
# Experiments:
# cJun bZIP [1] = target: T1, cJun bZIP; assay: ITC (PEAQ-ITC), peptide injected into cJun, one site model; Table 7 ITC, run at a lower temperature than the earlier 1/cJun ITC measurement
# cJun/TRE DNA interaction = target: T2, cJun/TRE DNA interaction (Homo sapiens, UniProt P05412, S292Y); assay: CD cJun/TRE DNA antagonism (shift of TRE DNA peak at ~281 nm, Hill fit); format: biochemical; conditions: HingeW concentrations of 50 and 100 μM
# T2 construct: The same 60 amino acid c-Jun bZIP construct was used for all experiments; His-SUMO (N, cleaved yes); made in house; host or cells: E. coli
# Serum stability (LC-MS) = format: in vitro ADME; conditions: human serum, 37° C.
# Protocol: Serum Stability: Peptide stocks (600 μM) were prepared in water and 50 μL added to 950 μL human serum (Merck) before incubation at 37° C. […] The supernatant was analysed by LC-MS and quantified using the sum of the two largest charge state intensities (1: 9+, 10+; 23,24: 3+, 4+).
# cJun bZIP [2] = target: T1, cJun bZIP
# cJun bZIP [3] = target: cJun bZIP (Homo sapiens, UniProt P05412, S292Y); assay: CD spectra and thermal denaturation of peptide/cJun heterodimers
# cJun bZIP [4] = target: T1, cJun bZIP; assay: CD thermal denaturation, peptide 5 µM and c-Jun 5 µM
# cJun = cJun (Homo sapiens, UniProt P05412, S292Y); assay: Isothermal titration calorimetry, Example 1 (MicroCal VP-ITC); format: binding; design: The same 60 amino acid c-Jun bZIP construct was used for all experiments; His-SUMO (N, cleaved yes); made in house; host or cells: E. coli; conditions: peptide 10 μM injected into cJun 1 μM, single site model; listed as HingeW
# Protocol: Using a MicroCal VP-ITC instrument (Malvern), 10 μL injections of antagonist peptide (HingeW or A-FosW) at 10 μM were injected into the cell containing cJun at 1 μM. MicroCal Origin software was used to record and analyse the heat change upon addition. Control experiments involved the injection of the antagonist peptide sample into the cell containing ITC buffer alone to determine the heat of dilution which was subtracted. The resulting binding data were fit to a one site binding model to extract the enthalpy change of binding (ΔH) and the equilibrium binding constant (KD), from which the free energy change of binding (ΔG) and the entropy change of binding (AS) was calculated (Wiseman et al., 1989). Thermodynamic parameters are presented as an average of two independent experiments with errors given as one standard deviation.
# TRE DNA = assay: CD control: peptide with TRE DNA; format: binding
# Protocol: Circular Dichroism (CD): An Applied Photophysics Chirascan was used for CD measurements, with a 200 μL sample in a 1 mm path length CD cell. Protein/DNA samples were suspended in 150 mM potassium phosphate, 150 mM potassium fluoride and 5 mM TCEP at pH 7.4 and were equilibrated for 30 minutes before measurement. […] These scans were averaged and converted to molar residue ellipticities (MRE).
# [5] = CD spectra and thermal denaturation of peptide-only samples (helicity, homodimer Tm); conditions: peptide alone
# Protocol: Circular Dichroism (CD): An Applied Photophysics Chirascan was used for CD measurements, with a 200 μL sample in a 1 mm path length CD cell. Protein/DNA samples were suspended in 150 mM potassium phosphate, 150 mM potassium fluoride and 5 mM TCEP at pH 7.4 and were equilibrated for 30 minutes before measurement. […] These scans were averaged and converted to molar residue ellipticities (MRE). Thermal denaturation experiments were performed by measuring the ellipticity at 222 nm over a 1 to 90° C. gradient at 1° C. increments. Post-melt scans at 20° C. confirmed the transitions were reversible as they overlaid within 10% of the pre-melt scan.
# Circular Dichroism (CD): An Applied Photophysics Chirascan was used for CD measurements, with a 200 μL sample in a 1 mm path length CD cell. Protein/DNA samples were suspended in 150 mM potassium phosphate, 150 mM potassium fluoride and 5 mM TCEP at pH 7.4 and were equilibrated for 30minutes before measurement. […] Thermal denaturation experiments were performed by measuring the ellipticity at 222 nm over a 1 to 90° C. gradient at 1° C. increments. Post-melt scans at 20° C. confirmed the transitions were reversible as they overlaid within 10% of the pre-melt scan.
# Peptide helicity was determined by quantifying the CD signal at 222 nm of peptide only samples. Thermal denaturation experiments were then used to determine the Tm of peptide-c-Jun heterodimers, which was used as an approximate measure of target engagement. […] The same 60 amino acid c-Jun bZIP construct was used for all experiments, regardless of antagonist peptide length.
# cJun bZIP [6] = target: T1, cJun bZIP
# cJun bZIP [7] = target: T1, cJun bZIP; assay: cell-based or functional assay
molecule,measurement,setting,value
"HingeW (Recombinant, capped (MAS at the N-terminus, GAP at the C-terminus) and C-terminally 6xHis-tagged, 69 amino acids; also called peptide 1) peptide: MASLEQRAEELARENEELEKEAEELVVEEDVLEEEIEQLEERNYALRKEIEDLQKQLEKLGAPHHHHHH",Kd,cJun bZIP [1],0.00021 µM
same,antagonism of the cJun/TRE interaction,cJun/TRE DNA interaction,complete antagonism
same,peak intensities relative to starting values,Serum stability (LC-MS); after 96 hours,no peaks corresponding to 1 are observed
same,degraded,Serum stability (LC-MS); at 24 hours,67%
same,half-life,Serum stability (LC-MS); exponential decay fit,18.9 h
same,ΔTm from component average (CD),cJun bZIP [2],~40 ° C.
same,increase in heterodimer Tm relative to A-FosW/cJun,cJun bZIP [3],1.3 °C
same,Fraction helicity at 20° C. (CD),"cJun bZIP [3]; heterodimer with c-Jun, equimolar, 10 μM total",34.7%
same,Tm (° C.) (CD),"cJun bZIP [3]; heterodimer with cJun bZIP, Example 1, listed as HingeW",71.2 °C
same,ΔTm from component average (CD),"cJun bZIP [3]; heterodimer with cJun vs average of component profiles, listed as HingeW",~40 °C
same,Tm (° C.) of peptide-c-Jun heterodimer,cJun bZIP [4],71.2 ° C.
same,Kd,cJun,14 nM
same,interaction with TRE DNA,TRE DNA,no interaction
same,Fraction helicity at 20° C. (CD),[5],27.2%
same,"helicity in isolation, less helical relative to A-FosW",[5],12.9%
same,Tm (° C.) (CD),cJun bZIP [6],71.2 ° C.
same,IC50 CD,cJun bZIP [7],13.4 µM
